Experimental data as given in paper doi:10.1101/2021.06.09.447721.

Target: GST-NET-Ct^ΔMIM (human) (UniProt P23975)
Assay: pull-down

## MAD2 (endogenous) (from UniProt Q13257 1-205) (natural protein)
  reduction of MAD2 binding against wild type GST-NET-Ct: 70%
